Measurements reported in article doi:10.1101/2020.06.24.169508.

Target: Vibrio campbellii chitoporin VhChiP, wild type (Vibrio campbellii (formerly Vibrio harveyi) BAA-1116)
Assay: SEC

With “Vibrio campbellii chitoporin VhChiP, wild type (natural protein)” the stoichiometry N was 3.
